The values that follow come from paper PMC5749951, “Mechanistic insights into the active site and allosteric communication pathways in human nonmuscle myosin-2C” (eLife, 2017).

Broadly, the koff is the first-order rate constant of dissociation. For orientation: kon means a measure of how fast the partners come together. What is called Kd is the constant that tells how readily two partners part at equilibrium.

What all share (conditions): both partners purified
Assay [1] concerns the target T1, pyrene-labeled filamentous actin (UniProt P68135 1-377, pyrene label). As to the kind of experiment: stopped-flow pyrene-actin fluorescence; dissociation of the myosin motor domain from pyrene-actin; salt free stopped-flow buffer; samples treated with apyrase prior to the assay (rigor conditions).
Assay [2] concerns the target T2, filamentous actin (F-actin) (UniProt P68135 1-377). In words: stopped-flow light scattering; myosin motor domain binding to F-actin in the presence of ADP; salt free stopped-flow buffer.
Assay [3] has as its target T2, filamentous actin (F-actin). As to the kind of experiment: stopped-flow light scattering + other: stopped-flow pyrene-actin fluorescence; dissociation equilibrium constant calculated as k-DA/k+DA; presence of ADP; salt free stopped-flow buffer.
Assay [4] has the same target. As to the kind of experiment: stopped-flow light scattering + other: stopped-flow pyrene-actin fluorescence; dissociation equilibrium constant calculated as k-A/k+A; absence of nucleotide (rigor); salt free stopped-flow buffer.
The target of assay [5] is T1, pyrene-labeled filamentous actin. In words: stopped-flow pyrene-actin fluorescence; dissociation of the myosin motor domain from pyrene-actin in the presence of ADP; salt free stopped-flow buffer.
Assay [6] deals with T2, filamentous actin (F-actin). In words: stopped-flow light scattering; myosin motor domain binding to F-actin in a stopped-flow system; salt free stopped-flow buffer; samples treated with apyrase prior to the assay (rigor conditions).

B1: human nonmuscle myosin-2C motor domain (amino acids 1-799) directly fused to spectrin repeats 1 and 2 from Dictyostelium alpha-actinin, C-terminal Flag-tag (domain or fragment)
chain: MAAVTMSVPGRKAPPRPGPVPEAAQPFLFTPRGPSAGGGPGSGTSPQVEWTARRLVWVPSELHGFEAAALRDEGEEEAEVELAESGRRLRLPRDQIQRMNPPKFSKAEDMAELTCLNEASVLHNLRERYYSGLIYTYSGLFCVVINPYKQLPIYTEAIVEMYRGKKRHEVPPHVYAVTEGAYRSMLQDREDQSILCTGESGAGKTENTKKVIQYLAHVASSPKGRKEPGVPGELERQLLQANPILEAFGNAKTVKNDNSSRFGKFIRINFDVAGYIVGANIETYLLEKSRAIRQAKDECSFHIFYQLLGGAGEQLKADLLLEPCSHYRFLTNGPSSSPGQERELFQETLESLRVLGFSHEEIISMLRMVSAVLQFGNIALKRERNTDQATMPDNTAAQKLCRLLGLGVTDFSRALLTPRIKVGRDYVQKAQTKEQADFALEALAKATYERLFRWLVLRLNRALDRSPRQGASFLGILDIAGFEIFQLNSFEQLCINYTNEKLQQLFNHTMFVLEQEEYQREGIPWTFLDFGLDLQPCIDLIERPANPPGLLALLDEECWFPKATDKSFVEKVAQEQGGHPKFQRPRHLRDQADFSVLHYAGKVDYKANEWLMKNMDPLNDNVAALLHQSTDRLTAEIWKDVEGIVGLEQVSSLGDGPPGGRPRRGMFRTVGQLYKESLSRLMATLSNTNPSFVRCIVPNHEKRAGKLEPRLVLDQLRCNGVLEGIRICRQGFPNRILFQEFRQRYEILTPNAIPKGFMDGKQACEKMIQALELDPNLYRVGQSKIFFRAGVLAQLEEEREQTKSDYLKRANELVQWINDKQASLESRDFGDSIESVQSFMNAHKEYKKTEKPPKGQEVSELEAIYNSLQTKLRLIKREPFVAPAGLTPNEIDSTWSALEKAEQEHAEALRIELKRQKKIAVLLQKYNRILKKLENWATTKSVYLGSNETGDSITAVQAKLKNLEAFDGECQSLEGQSNSDLLSILAQLTELNYNGVPELTERKDTFFAQQWTGVKSSAETYKNT
notes: nonmuscle myosin-2C heavy chain (gene product of MYH14), human, motor domain, amino acids 1-799; alpha-actinin, Dictyostelium discoideum, spectrin repeats 1 and 2, used as artificial lever arm; Monomeric motor domain construct; also called NM2C; Hs NM2C; source: Sf9/baculovirus system, purified to electrophoretic homogeneity
Regarding B1, the results for the off-rate constant (koff) in assay [1] and in assay [5] were roughly 0.15 s⁻¹ and roughly 0.004 s⁻¹, respectively. In addition, the association rate constant (kon) in assay [2] was found to be 530000 ± 10000 M⁻¹ s⁻¹; in assay [6], 2.49e+06 ± 70000 M⁻¹ s⁻¹. Besides, the Kd was roughly 8 nM in assay [3] and roughly 60 nM in assay [4].

B2: human nonmuscle myosin-2C motor domain (amino acids 1-799) R788K fused to spectrin repeats 1 and 2 from Dictyostelium alpha-actinin, C-terminal Flag-tag (domain or fragment)
chain: MAAVTMSVPGRKAPPRPGPVPEAAQPFLFTPRGPSAGGGPGSGTSPQVEWTARRLVWVPSELHGFEAAALRDEGEEEAEVELAESGRRLRLPRDQIQRMNPPKFSKAEDMAELTCLNEASVLHNLRERYYSGLIYTYSGLFCVVINPYKQLPIYTEAIVEMYRGKKRHEVPPHVYAVTEGAYRSMLQDREDQSILCTGESGAGKTENTKKVIQYLAHVASSPKGRKEPGVPGELERQLLQANPILEAFGNAKTVKNDNSSRFGKFIRINFDVAGYIVGANIETYLLEKSRAIRQAKDECSFHIFYQLLGGAGEQLKADLLLEPCSHYRFLTNGPSSSPGQERELFQETLESLRVLGFSHEEIISMLRMVSAVLQFGNIALKRERNTDQATMPDNTAAQKLCRLLGLGVTDFSRALLTPRIKVGRDYVQKAQTKEQADFALEALAKATYERLFRWLVLRLNRALDRSPRQGASFLGILDIAGFEIFQLNSFEQLCINYTNEKLQQLFNHTMFVLEQEEYQREGIPWTFLDFGLDLQPCIDLIERPANPPGLLALLDEECWFPKATDKSFVEKVAQEQGGHPKFQRPRHLRDQADFSVLHYAGKVDYKANEWLMKNMDPLNDNVAALLHQSTDRLTAEIWKDVEGIVGLEQVSSLGDGPPGGRPRRGMFRTVGQLYKESLSRLMATLSNTNPSFVRCIVPNHEKRAGKLEPRLVLDQLRCNGVLEGIRICRQGFPNRILFQEFRQRYEILTPNAIPKGFMDGKQACEKMIQALELDPNLYRVGQSKIFFKAGVLAQLEEEREQTKSDYLKRANELVQWINDKQASLESRDFGDSIESVQSFMNAHKEYKKTEKPPKGQEVSELEAIYNSLQTKLRLIKREPFVAPAGLTPNEIDSTWSALEKAEQEHAEALRIELKRQKKIAVLLQKYNRILKKLENWATTKSVYLGSNETGDSITAVQAKLKNLEAFDGECQSLEGQSNSDLLSILAQLTELNYNGVPELTERKDTFFAQQWTGVKSSAETYKNT
notes: nonmuscle myosin-2C heavy chain (gene product of MYH14), human, motor domain, amino acids 1-799, with R788K; alpha-actinin, Dictyostelium discoideum, spectrin repeats 1 and 2, used as artificial lever arm; Point mutant made by people on the fusion construct m1; also called Hs R788K; R788K (kinetic studies); source: Sf9/baculovirus system, purified to electrophoretic homogeneity
Regarding B2, the off-rate constant (koff) in assay [1] lay within 0.04 to 0.07 s⁻¹; in assay [5], 0.067 to 0.11 s⁻¹. In addition, the kon in assay [2] is 2.53e+06 ± 50000 M⁻¹ s⁻¹; in assay [6] it was 1.65e+06 ± 30000 M⁻¹ s⁻¹. The results for the Kd in assay [3] and in assay [4] were 26 to 43 nM and 24 to 42 nM, respectively.

B3: human nonmuscle myosin-2C motor domain (amino acids 1-799) R788E fused to spectrin repeats 1 and 2 from Dictyostelium alpha-actinin, C-terminal Flag-tag (domain or fragment)
chain: MAAVTMSVPGRKAPPRPGPVPEAAQPFLFTPRGPSAGGGPGSGTSPQVEWTARRLVWVPSELHGFEAAALRDEGEEEAEVELAESGRRLRLPRDQIQRMNPPKFSKAEDMAELTCLNEASVLHNLRERYYSGLIYTYSGLFCVVINPYKQLPIYTEAIVEMYRGKKRHEVPPHVYAVTEGAYRSMLQDREDQSILCTGESGAGKTENTKKVIQYLAHVASSPKGRKEPGVPGELERQLLQANPILEAFGNAKTVKNDNSSRFGKFIRINFDVAGYIVGANIETYLLEKSRAIRQAKDECSFHIFYQLLGGAGEQLKADLLLEPCSHYRFLTNGPSSSPGQERELFQETLESLRVLGFSHEEIISMLRMVSAVLQFGNIALKRERNTDQATMPDNTAAQKLCRLLGLGVTDFSRALLTPRIKVGRDYVQKAQTKEQADFALEALAKATYERLFRWLVLRLNRALDRSPRQGASFLGILDIAGFEIFQLNSFEQLCINYTNEKLQQLFNHTMFVLEQEEYQREGIPWTFLDFGLDLQPCIDLIERPANPPGLLALLDEECWFPKATDKSFVEKVAQEQGGHPKFQRPRHLRDQADFSVLHYAGKVDYKANEWLMKNMDPLNDNVAALLHQSTDRLTAEIWKDVEGIVGLEQVSSLGDGPPGGRPRRGMFRTVGQLYKESLSRLMATLSNTNPSFVRCIVPNHEKRAGKLEPRLVLDQLRCNGVLEGIRICRQGFPNRILFQEFRQRYEILTPNAIPKGFMDGKQACEKMIQALELDPNLYRVGQSKIFFEAGVLAQLEEEREQTKSDYLKRANELVQWINDKQASLESRDFGDSIESVQSFMNAHKEYKKTEKPPKGQEVSELEAIYNSLQTKLRLIKREPFVAPAGLTPNEIDSTWSALEKAEQEHAEALRIELKRQKKIAVLLQKYNRILKKLENWATTKSVYLGSNETGDSITAVQAKLKNLEAFDGECQSLEGQSNSDLLSILAQLTELNYNGVPELTERKDTFFAQQWTGVKSSAETYKNT
notes: nonmuscle myosin-2C heavy chain (gene product of MYH14), human, motor domain, amino acids 1-799, with R788E; alpha-actinin, Dictyostelium discoideum, spectrin repeats 1 and 2, used as artificial lever arm; Point mutant made by people on the fusion construct m1; also called Hs R788E; R788E (kinetic studies); source: Sf9/baculovirus system, purified to electrophoretic homogeneity
Consider B3, for which the koff was roughly 0.031 s⁻¹ in assay [1] and roughly 0.002 s⁻¹ in assay [5]. For the same molecule, the figures for the kon in assay [2] and in assay [6] were 210000 ± 10000 M⁻¹ s⁻¹ and 660000 ± 30000 M⁻¹ s⁻¹, respectively. The dissociation constant Kd in assay [3] is roughly 9 nM; in assay [4] it was roughly 47 nM.
